The values below come from PMC8396345, “Target Affinity and Structural Analysis for a Selection of Norovirus Aptamers”.

Data set [1] deals with T1, norovirus GI.1 VLP (major capsid protein VP1) (Norovirus GI.1, UniProt Q83884 1-530). Briefly: filter binding; Kd not determined; FRA: 1 nM 32P-aptamer, 0-1500 nM VLP, 60 min, each aptamer's original selection buffer (M1, M6-2, SMV19, SMV21: PBS pH 7.4; others in Table S1, not in material); FRA temperature not stated; pull-down at room temperature. The conditions noted are these: protein: recombinant, chain copies: 180, label: 5'-32P (FRA).
T1 sequence (Q83884 whole entry): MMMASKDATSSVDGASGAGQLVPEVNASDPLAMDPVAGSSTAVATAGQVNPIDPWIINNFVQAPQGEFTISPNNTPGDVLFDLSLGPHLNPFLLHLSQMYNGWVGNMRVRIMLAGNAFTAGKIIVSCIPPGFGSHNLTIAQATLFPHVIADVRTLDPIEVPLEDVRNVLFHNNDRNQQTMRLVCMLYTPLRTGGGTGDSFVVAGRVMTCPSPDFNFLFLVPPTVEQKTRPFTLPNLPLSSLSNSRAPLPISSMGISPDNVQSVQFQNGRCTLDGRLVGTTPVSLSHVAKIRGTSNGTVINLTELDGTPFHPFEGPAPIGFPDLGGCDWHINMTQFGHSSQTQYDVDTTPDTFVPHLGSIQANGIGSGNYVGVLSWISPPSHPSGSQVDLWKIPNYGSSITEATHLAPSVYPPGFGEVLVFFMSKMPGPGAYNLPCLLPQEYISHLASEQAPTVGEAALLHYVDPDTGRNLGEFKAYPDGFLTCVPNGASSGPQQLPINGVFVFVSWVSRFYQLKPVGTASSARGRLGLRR

Data set [2] deals with T1, norovirus GI.1 VLP (major capsid …). Briefly: filter binding; <10% bound at 1500 nM; FRA: 1 nM 32P-aptamer, 0-1500 nM VLP, 60 min, each aptamer's original selection buffer (M1, M6-2, SMV19, SMV21: PBS pH 7.4; others in Table S1, not in material); FRA temperature not stated; pull-down at room temperature. The conditions noted are these: protein: recombinant; chain copies: 180; label: 5'-32P (FRA); B-DNA-like CD.

B1: AG3 (ssDNA)
DNA: GCTAGCGAATTCCGTACGAAGGGCGAATTCCACATTGGGCTGCAGCCCGGGGGATCC
As to B1, the binding result in data set [1] (B-DNA-like CD) is listed as “no binding”. The same measure, in the same setting: to CACCAGTGTGTTGAGGTTTGAGCACACTGATAGAGTGTCA (ssDNA) [SMV19] belongs “no binding”. Turning to GAAATTGGGTTCGGGTTTGGGTTGGGATTACTTAGCGATG (structured_DNA) [Buf-2], the binding result in data set [1] (inter- or intramolecular not resolved) is “no binding”. For TGGGAAGAGGTCCGGTAAATGCAGGGTCAGCCCGGAGAG (ssDNA) [M6-2], the binding result in data set [2] is listed as “no binding”.

As to TGTTTATGGGGATAAACGTATCTAATTCGTGTACTAATCA (ssDNA) [M1], the binding result in data set [2] is on record as “no binding”.

For the molecule GTCTGTAGTAGGGAGGATGGTCCGGGGCCCCGAGACGACGTTATCAGGC (ssDNA) [Beier], the binding result in data set [1] (B-DNA-like CD) was “no binding”. Same read-out and setting: to CCATGTTTTGTAGGTGTAATAGGTCATGTTAGGGTTTCTG (ssDNA) [SMV21] belongs “no binding”.
